{
  "source": "patent US10772928B2",
  "about": "“Modulation and detection of a neuronal alternative splicing regulatory network for treatment and diagnosis of neurological disorders” (The Governing Council of the University of Toronto, priority 2014, dated 2020)",
  "data": [
    {"target": "T1, nSR100 (Mus musculus, UniProt Q8BKA3)", "T1 construct": "host or cells: mouse N2A cells", "T1 sequence (Q8BKA3 1-608)": "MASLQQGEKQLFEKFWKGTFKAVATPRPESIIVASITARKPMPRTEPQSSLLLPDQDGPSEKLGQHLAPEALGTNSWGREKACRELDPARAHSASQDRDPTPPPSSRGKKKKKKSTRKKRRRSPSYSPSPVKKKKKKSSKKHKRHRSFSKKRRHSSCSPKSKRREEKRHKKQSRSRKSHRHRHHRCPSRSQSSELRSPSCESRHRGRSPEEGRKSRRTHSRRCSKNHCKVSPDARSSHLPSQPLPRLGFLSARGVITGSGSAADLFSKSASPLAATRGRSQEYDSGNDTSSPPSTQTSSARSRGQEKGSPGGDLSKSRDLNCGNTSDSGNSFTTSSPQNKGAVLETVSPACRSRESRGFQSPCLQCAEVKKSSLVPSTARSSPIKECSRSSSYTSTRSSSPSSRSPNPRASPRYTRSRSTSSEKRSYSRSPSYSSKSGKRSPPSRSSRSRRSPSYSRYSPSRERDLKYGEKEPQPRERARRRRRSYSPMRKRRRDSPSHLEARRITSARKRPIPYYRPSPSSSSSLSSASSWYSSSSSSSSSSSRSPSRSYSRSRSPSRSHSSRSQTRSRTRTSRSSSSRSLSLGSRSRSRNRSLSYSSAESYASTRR", "assay": "AP-MS nSR100 interaction partners from mouse N2A cells (Table 5)", "format": "binding", "settings": "bait Srrm4", "excerpt": "By applying affinity purification coupled to mass-spectrometry (AP-MS), several interaction nSR100 partner proteins were detected that provide insight into mechanisms of post-translational regulation of nSR100 levels.", "values": [
      {"substance": "Ap2a2", "AvgP (average of the SAINT scores)": 1, "MaxP (maximal SAINT score)": 1},
      {"substance": "Ap2m1", "AvgP (average of the SAINT scores)": 1, "MaxP (maximal SAINT score)": 1},
      {"substance": "Bub3", "AvgP (average of the SAINT scores)": 1, "MaxP (maximal SAINT score)": 1},
      {"substance": "Cdc42bpb", "AvgP (average of the SAINT scores)": 1, "MaxP (maximal SAINT score)": 1},
      {"substance": "Cdk1", "AvgP (average of the SAINT scores)": 1, "MaxP (maximal SAINT score)": 1},
      {"substance": "Clk3", "AvgP (average of the SAINT scores)": 0.97, "MaxP (maximal SAINT score)": 0.99},
      {"substance": "Csnk2b", "AvgP (average of the SAINT scores)": 0.99, "MaxP (maximal SAINT score)": 1},
      {"substance": "Ddx39b", "AvgP (average of the SAINT scores)": 1, "MaxP (maximal SAINT score)": 1},
      {"substance": "Gpatch8", "AvgP (average of the SAINT scores)": 0.95, "MaxP (maximal SAINT score)": 0.95},
      {"substance": "Hspa2", "AvgP (average of the SAINT scores)": 1, "MaxP (maximal SAINT score)": 1},
      {"substance": "Idh2", "AvgP (average of the SAINT scores)": 1, "MaxP (maximal SAINT score)": 1},
      {"substance": "Magohb", "AvgP (average of the SAINT scores)": 1, "MaxP (maximal SAINT score)": 1},
      {"substance": "Nudt21", "AvgP (average of the SAINT scores)": 0.97, "MaxP (maximal SAINT score)": 1},
      {"substance": "Pcbp1", "AvgP (average of the SAINT scores)": 0.99, "MaxP (maximal SAINT score)": 1},
      {"substance": "Pnn", "AvgP (average of the SAINT scores)": 1, "MaxP (maximal SAINT score)": 1},
      {"substance": "Prpf8", "AvgP (average of the SAINT scores)": 1, "MaxP (maximal SAINT score)": 1},
      {"substance": "Prrc2a", "AvgP (average of the SAINT scores)": 0.95, "MaxP (maximal SAINT score)": 0.95}
    ]},
    {"target": "T1, nSR100", "assay": "AP-MS nSR100 interaction partners from mouse N2A cells (Table 5)", "format": "binding", "settings": "bait Srrm4, 0.1 added to prevent division by 0", "values": [
      {"substance": "Ap2a2", "FoldChange between the prey Avg spectra of the bait and control purifications": 6.16},
      {"substance": "Ap2m1", "FoldChange between the prey Avg spectra of the bait and control purifications": 9.12},
      {"substance": "Bub3", "FoldChange between the prey Avg spectra of the bait and control purifications": 9.5},
      {"substance": "Cdc42bpb", "FoldChange between the prey Avg spectra of the bait and control purifications": 90},
      {"substance": "Cdk1", "FoldChange between the prey Avg spectra of the bait and control purifications": 14.25},
      {"substance": "Clk3", "FoldChange between the prey Avg spectra of the bait and control purifications": 25},
      {"substance": "Csnk2b", "FoldChange between the prey Avg spectra of the bait and control purifications": 8.5},
      {"substance": "Ddx39b", "FoldChange between the prey Avg spectra of the bait and control purifications": 150},
      {"substance": "Gpatch8", "FoldChange between the prey Avg spectra of the bait and control purifications": 20},
      {"substance": "Hspa2", "FoldChange between the prey Avg spectra of the bait and control purifications": 390},
      {"substance": "Idh2", "FoldChange between the prey Avg spectra of the bait and control purifications": 6.6},
      {"substance": "Magohb", "FoldChange between the prey Avg spectra of the bait and control purifications": 21},
      {"substance": "Nudt21", "FoldChange between the prey Avg spectra of the bait and control purifications": 4},
      {"substance": "Pcbp1", "FoldChange between the prey Avg spectra of the bait and control purifications": 11.33},
      {"substance": "Pnn", "FoldChange between the prey Avg spectra of the bait and control purifications": 25.33},
      {"substance": "Prpf8", "FoldChange between the prey Avg spectra of the bait and control purifications": 3.36},
      {"substance": "Prrc2a", "FoldChange between the prey Avg spectra of the bait and control purifications": 20}
    ]},
    {"target": "T1, nSR100", "assay": "AP-MS nSR100 interaction partners from mouse N2A cells (Table 5)", "format": "binding", "settings": "bait Srrm4, 2 replicates", "values": [
      {"substance": "Ap2a2", "AvgSpec (average number of spectra per replicate)": 117},
      {"substance": "Ap2m1", "AvgSpec (average number of spectra per replicate)": 36.5},
      {"substance": "Bub3", "AvgSpec (average number of spectra per replicate)": 19},
      {"substance": "Cdc42bpb", "AvgSpec (average number of spectra per replicate)": 9},
      {"substance": "Cdk1", "AvgSpec (average number of spectra per replicate)": 57},
      {"substance": "Clk3", "AvgSpec (average number of spectra per replicate)": 2.5},
      {"substance": "Csnk2b", "AvgSpec (average number of spectra per replicate)": 8.5},
      {"substance": "Ddx39b", "AvgSpec (average number of spectra per replicate)": 15},
      {"substance": "Gpatch8", "AvgSpec (average number of spectra per replicate)": 2},
      {"substance": "Hspa2", "AvgSpec (average number of spectra per replicate)": 39},
      {"substance": "Idh2", "AvgSpec (average number of spectra per replicate)": 16.5},
      {"substance": "Magohb", "AvgSpec (average number of spectra per replicate)": 10.5},
      {"substance": "Nudt21", "AvgSpec (average number of spectra per replicate)": 14},
      {"substance": "Pcbp1", "AvgSpec (average number of spectra per replicate)": 17},
      {"substance": "Pnn", "AvgSpec (average number of spectra per replicate)": 38},
      {"substance": "Prpf8", "AvgSpec (average number of spectra per replicate)": 60.5},
      {"substance": "Prrc2a", "AvgSpec (average number of spectra per replicate)": 2}
    ]},
    {"target": "T1, nSR100", "assay": "AP-MS nSR100 interaction partners from mouse N2A cells (Table 5)", "format": "binding", "settings": "bait Srrm4, biological replicate 1 (first number of the cell), AP-MS", "values": [
      {"substance": "Ap2a2", "Spectra (number of spectra for the prey in the purification of the bait)": 97},
      {"substance": "Ap2m1", "Spectra (number of spectra for the prey in the purification of the bait)": 31},
      {"substance": "Bub3", "Spectra (number of spectra for the prey in the purification of the bait)": 17},
      {"substance": "Cdc42bpb", "Spectra (number of spectra for the prey in the purification of the bait)": 6},
      {"substance": "Cdk1", "Spectra (number of spectra for the prey in the purification of the bait)": 47},
      {"substance": "Clk3", "Spectra (number of spectra for the prey in the purification of the bait)": 2},
      {"substance": "Csnk2b", "Spectra (number of spectra for the prey in the purification of the bait)": 10},
      {"substance": "Ddx39b", "Spectra (number of spectra for the prey in the purification of the bait)": "15|15"},
      {"substance": "Gpatch8", "Spectra (number of spectra for the prey in the purification of the bait)": "2|2"},
      {"substance": "Hspa2", "Spectra (number of spectra for the prey in the purification of the bait)": 41},
      {"substance": "Idh2", "Spectra (number of spectra for the prey in the purification of the bait)": 17},
      {"substance": "Magohb", "Spectra (number of spectra for the prey in the purification of the bait)": 10},
      {"substance": "Nudt21", "Spectra (number of spectra for the prey in the purification of the bait)": 16},
      {"substance": "Pcbp1", "Spectra (number of spectra for the prey in the purification of the bait)": 16},
      {"substance": "Pnn", "Spectra (number of spectra for the prey in the purification of the bait)": 33},
      {"substance": "Prpf8", "Spectra (number of spectra for the prey in the purification of the bait)": 63},
      {"substance": "Prrc2a", "Spectra (number of spectra for the prey in the purification of the bait)": "2|2"}
    ]},
    {"target": "T1, nSR100", "assay": "AP-MS nSR100 interaction partners from mouse N2A cells (Table 5)", "format": "binding", "settings": "bait Srrm4, biological replicate 2 (second number of the cell), AP-MS", "values": [
      {"substance": "Ap2a2", "Spectra (number of spectra for the prey in the purification of the bait)": 137},
      {"substance": "Ap2m1", "Spectra (number of spectra for the prey in the purification of the bait)": 42},
      {"substance": "Bub3", "Spectra (number of spectra for the prey in the purification of the bait)": 21},
      {"substance": "Cdc42bpb", "Spectra (number of spectra for the prey in the purification of the bait)": 12},
      {"substance": "Cdk1", "Spectra (number of spectra for the prey in the purification of the bait)": 67},
      {"substance": "Clk3", "Spectra (number of spectra for the prey in the purification of the bait)": 3},
      {"substance": "Csnk2b", "Spectra (number of spectra for the prey in the purification of the bait)": 7},
      {"substance": "Ddx39b", "Spectra (number of spectra for the prey in the purification of the bait)": "15|15"},
      {"substance": "Gpatch8", "Spectra (number of spectra for the prey in the purification of the bait)": "2|2"},
      {"substance": "Hspa2", "Spectra (number of spectra for the prey in the purification of the bait)": 37},
      {"substance": "Idh2", "Spectra (number of spectra for the prey in the purification of the bait)": 16},
      {"substance": "Magohb", "Spectra (number of spectra for the prey in the purification of the bait)": 11},
      {"substance": "Nudt21", "Spectra (number of spectra for the prey in the purification of the bait)": 12},
      {"substance": "Pcbp1", "Spectra (number of spectra for the prey in the purification of the bait)": 18},
      {"substance": "Pnn", "Spectra (number of spectra for the prey in the purification of the bait)": 43},
      {"substance": "Prpf8", "Spectra (number of spectra for the prey in the purification of the bait)": 58},
      {"substance": "Prrc2a", "Spectra (number of spectra for the prey in the purification of the bait)": "2|2"}
    ]},
    {"target": "T1, nSR100", "assay": "AP-MS nSR100 interaction partners from mouse N2A cells (Table 5)", "format": "binding", "settings": "bait Srrm4, sum of spectra over 2 replicates", "values": [
      {"substance": "Ap2a2", "SpecSum": 234},
      {"substance": "Ap2m1", "SpecSum": 73},
      {"substance": "Bub3", "SpecSum": 38},
      {"substance": "Cdc42bpb", "SpecSum": 18},
      {"substance": "Cdk1", "SpecSum": 114},
      {"substance": "Clk3", "SpecSum": 5},
      {"substance": "Csnk2b", "SpecSum": 17},
      {"substance": "Ddx39b", "SpecSum": 30},
      {"substance": "Gpatch8", "SpecSum": 4},
      {"substance": "Hspa2", "SpecSum": 78},
      {"substance": "Idh2", "SpecSum": 33},
      {"substance": "Magohb", "SpecSum": 21},
      {"substance": "Nudt21", "SpecSum": 28},
      {"substance": "Pcbp1", "SpecSum": 34},
      {"substance": "Pnn", "SpecSum": 76},
      {"substance": "Prpf8", "SpecSum": 121},
      {"substance": "Prrc2a", "SpecSum": 4}
    ]}
  ]
}
